Measurements from patent US20240084259A1, “STEM CELL-DERIVED MATURE CARDIOMYOCYTES AND CARDIOVASCULAR DISEASE MODEL USING SAME” (KOREA UNIVERSITY RESEARCH AND BUSINESS FOUNDATION, priority 2019, published 2024).

B1: FGF4: fibroblast growth factor 4 (FGF4), maturation factor added to the differentiation medium (protein, UniProt P08620 31-206, looked up)
Fibroblast growth factor 4: APTAPNGTLEAELERRWESLVALSLARLPVAAQPKEAAVQSGAGDYLLGIKRLRRLYCNVGIGFHLQALPDGRIGGAHADTRDSLLELSPVERGVVSIFGVASRFFVAMSSKGKLYGSPFFTDECTFKEILLPNNYNAYESYKYPGMFIALSKNGKTKKGNRVSPTMKVTHFLPRL
B2: FGF10: FGF10, maturation factor compared at 10 ng/ml (protein, UniProt O15520 38-208, looked up)
Fibroblast growth factor 10: QALGQDMVSPEATNSSSSSFSSPSSAGRHVRSYNHLQGDVRWRKLFSFTKYFLKIEKNGKVSGTKKENCPYSILEITSVEIGVVAVKAINSNYYLAMNKKGKLYGSKEFNNDCKLKERIEENGYNTYASFNWQHNGRQMYVALNGKGAPRRGQKTRRKNTSAHFLPMVVHS

Experiments:
Format in all cases: cell-based
[1] = test system: human embryonic stem cells (BG01 cell line); assay: Morphology and beating of cardiomyocytes differentiated from stem cells (optical microscope); conditions: FGFs 10 ng/ml, ascorbic acid 200 μg/ml; for day of differentiation on which beating cardiomyocytes were observed: control group 9th day; for cell morphology: treatment from 5th to 15th day of differentiation, vs control group
Description: In order to increase the differentiation efficiency of stem cells into cardiomyocytes and to improve differentiation by cardiomyocyte type and mature differentiation, conditions for monolayer differentiation of human embryonic stem cells (BG01 cell line) into cardiomyocytes were established.
An E8 culture medium (STEMCELL Technologies) containing a 2 μM ROCK inhibitor (thiazovivin) was added to a 6-well culture plate coated with Matrigel, and embryonic stem cells dissociated into single cells using Accutase were seeded at 2.5×10^5 cells per well. Culture was carried out for about 3 days, and the E8 culture medium was exchanged until confluence of the 6-well culture plate with the cells. When confluence of the 6-well plate with the human embryonic stem cells was achieved, CHIR99021 (Sigma-Aldrich) as a GSK-3 inhibitor was added at a concentration of 6 μM to a CDM3 culture medium (containing RPMI 1640, serum albumin and ascorbic acid as three chemically verified components, P. W. Burridge et al., Nature Methods 11:855, 2014), followed by culture for 24 hours. Then, on the 2nd day of differentiation, 5 μM IWP2 (Inhibitor of Wnt Production 2) was added to the medium, followed by culture for 2 days. After addition of 10 ng/ml FGF2, 10 ng/ml FGF4, 10 ng/ml FGF10, 200 μg/ml ascorbic acid, and 10 ng/ml FGF4+200 μg/ml ascorbic acid on the 5th day of differentiation, culture was carried out until the 15th day of differentiation while the culture medium was exchanged every 48 hours with an RPMI+B27(-Insulin) medium (FIG. 1a).

[2] = test system: human embryonic stem cells (BG01); assay: Polymerase chain reaction for cell lineage markers during differentiation into cardiomyocytes; conditions: 15th day, treated 5th to 15th day; FGFs 10 ng/ml, ascorbic acid 200 μg/ml; vs control group
Excerpt: (§1) In order to investigate the effect of FGF2 on differentiation by cardiomyocyte type, mature differentiation of cardiomyocytes, and differentiation of vascular smooth muscle cells, the expression of a cardiomyocyte marker (cTnT), mature cardiomyocyte marker (cTnI), ventricular cardiomyocyte marker (MLC2v), atrial cardiomyocyte markers (MLC2a, ANP), nodal cardiomyocyte markers (HCN4, TBX18), vascular smooth muscle cell markers (SMA, SM22), and vascular endothelial cell marker (CD31) in the control group and the group treated with 10 ng/ml FGF2 for 10 days from the 5th day to the 15th day during the differentiation of human embryonic stem cells (BG01) into cardiomyocytes was determined through polymerase chain reaction using primers for each cell lineage marker.
as §1, with “of FGF10” for “of FGF2”, “of the” for “of a”, “ng/ml FGF10” for “ng/ml FGF2”
as §1, with “of ascorbic acid” for “of FGF2”, “of the” for “of a”, “with 200 μg/ml ascorbic acid” for “with 10 ng/ml FGF2”
as §1, with “of FGF4” for “of FGF2”, “of the” for “of a”, “ng/ml FGF4” for “ng/ml FGF2”

[3] = test system: human embryonic stem cells (BG01); assay: Immunofluorescence staining of cardiomyocyte type markers; conditions: 10 ng/ml FGF4 or 10 ng/ml FGF4+200 μg/ml ascorbic acid
Description: In order to investigate the effect of treatment with FGF4 alone and co-treatment with FGF4+ascorbic acid on type-specific differentiation and mature differentiation of human embryonic stem cells into cardiomyocytes, differences in expression of the cardiomyocyte marker (cTnT), ventricular cardiomyocyte marker (MLC2v), and atrial cardiomyocyte marker (MLC2a) after treatment with 10 ng/ml FGF4 or co-treatment with 10 ng/ml FGF4+200 μg/ml ascorbic acid for 10 days from the 5th day to the 15th day during the differentiation of human embryonic stem cells (BG01) into cardiomyocytes was confirmed through immunofluorescence staining (FIG. 7).

[4] = test system: human embryonic stem cells; assay: FGF4 concentration series, polymerase chain reaction for MLC2v, MLC2a, TBX18, SMA
Description: In order to determine the appropriate concentration of FGF4 on the increase in gene expression of the ventricular cardiomyocyte marker (MLC2v), atrial cardiomyocyte marker (MLC2a), nodal cardiomyocyte marker (TBX18), and vascular smooth muscle cell marker (SMA) from human embryonic stem cells, after treatment with FGF4 at various concentrations for 10 days from the 5th day to the 15th day of differentiation, polymerase chain reaction was performed using primers for MLC2v, MLC2a, TBX18, and SMA.

Row | Molecule | day of differentiation on which beating cardiomyocytes were observed [1] | cell morphology [1] | expression of atrial cardiomyocyte marker ANP (mRNA) [2] | expression of mature cardiomyocyte marker cTnI (mRNA) [2] | expression of nodal cardiomyocyte marker HCN4 (mRNA) [2] | expression of nodal cardiomyocyte marker TBX18 (mRNA) [2] | expression of vascular smooth muscle cell marker SM22 (mRNA) [2] | expression of vascular smooth muscle cell marker SMA (mRNA) [2] | expression of ventricular cardiomyocyte marker MLC2v (mRNA) [2] | expression of atrial cardiomyocyte marker MLC2a (mRNA) [2] | other results
1 | FGF2: FGF2, maturation factor compared at 10 ng/ml | 9 days | morphological changes similar to the control group | significantly increased | no effect | significantly decreased | significantly decreased | significantly decreased | significantly decreased | no effect |  | expression of vascular endothelial cell marker CD31 (mRNA) [2]: significantly increased
2 | O=C1O[C@H]([C@@H](O)CO)C(O)=C1O [ascorbic acid, reference compound] | 9 days | relatively flat morphology | significantly increased | significantly increased | significantly decreased | significantly decreased | significantly decreased | significantly decreased | significantly increased | significantly increased | expression of cardiomyocyte marker cTnT (mRNA) [2]: significantly increased
3 | B1 | 9 days | formed in a thickened structure | significantly increased | significantly increased | significantly decreased | significantly decreased | significantly decreased | significantly decreased | significantly increased | significantly increased | morphology of cardiomyocytes (immunostaining) ([3]; 5th to 15th day, compared to control group): agglomerated and thickened morphology; atrial cardiomyocyte marker MLC2a (immunostaining) ([3]; control group also positive): positive reaction; expression of ventricular cardiomyocyte marker MLC2v (immunostaining) ([3]; in the thickened cells, 5th to 15th day): increased; gene expression of atrial cardiomyocyte type marker MLC2a ([4]; 5 ng/ml FGF4, 5th to 15th day): started to increase; gene expression of nodal cardiomyocyte marker TBX18 ([4]; 5 ng/ml FGF4, 5th to 15th day): significantly decreased; gene expression of vascular smooth muscle cell marker SMA ([4]; 5 ng/ml FGF4, 5th to 15th day): significantly decrease; gene expression of ventricular cardiomyocyte type marker MLC2v ([4]; 5 ng/ml FGF4, 5th to 15th day): started to increase; gene expression of atrial cardiomyocyte type marker MLC2a ([4]; 10 ng/ml FGF4, 5th to 15th day): highest; gene expression of nodal cardiomyocyte marker TBX18 ([4]; 10 ng/ml FGF4, 5th to 15th day): significantly decreased; gene expression of vascular smooth muscle cell marker SMA ([4]; 10 ng/ml FGF4, 5th to 15th day): significantly decrease; gene expression of ventricular cardiomyocyte type marker MLC2v ([4]; 10 ng/ml FGF4, 5th to 15th day): highest; gene expression of atrial cardiomyocyte type marker MLC2a ([4]; 25 ng/ml FGF4, 5th to 15th day): highest; gene expression of nodal cardiomyocyte marker TBX18 ([4]; 25 ng/ml FGF4, 5th to 15th day): significantly decreased; gene expression of vascular smooth muscle cell marker SMA ([4]; 25 ng/ml FGF4, 5th to 15th day): significantly decrease; gene expression of ventricular cardiomyocyte type marker MLC2v ([4]; 25 ng/ml FGF4, 5th to 15th day): highest; gene expression of atrial cardiomyocyte type marker MLC2a ([4]; 50 ng/ml FGF4, 5th to 15th day): observed to increase; gene expression of ventricular cardiomyocyte type marker MLC2v ([4]; 50 ng/ml FGF4, 5th to 15th day): observed to increase; gene expression of nodal cardiomyocyte marker TBX18 ([4]; 100 ng/ml FGF4, 5th to 15th day): significantly decreased
4 | B2 | 9 days | morphological changes similar to the control group |  | no effect | significantly increased | significantly increased |  | significantly increased | no effect | significantly increased | 
